Laboratory results from the supplement of paper PMC9112550, “Optimization of the antimicrobial peptide Bac7 by deep mutational scanning” (BMC Biology, 2022).

test system: Escherichia coli TOP10; experiment: shrunken log2 fold change of peptide-encoding DNA abundance (4.5 h post-induction vs induction); higher = less antimicrobial activity (less host growth inhibition); conditions: time post-induction: 4.5 h; library: site-saturation at positions 5, 18, 19, 20
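Further: peptides expressed intracellularly from a pBAD plasmid library in pooled LB shake-flask culture, induced with 0.3% L-arabinose, DNA abundance read by NGS, three biological replicates, DESeq2 with apeglm shrinkage.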

Row | Sequence | shrunken log2 fold change
1 | RRIRLRPPRLPRPRPRPCIPPRP | -0.194
2 | RRIRLRPPRLPRPRPRPCKTPRP | 0.0231
3 | RRIRLRPPRLPRPRPRPCKYPRP | -0.0018
4 | RRIRLRPPRLPRPRPRPCLHPRP | -0.113
5 | RRIRLRPPRLPRPRPRPCLNPRP | -0.0428
6 | RRIRLRPPRLPRPRPRPCMPPRP | -0.579
7 | RRIRLRPPRLPRPRPRPCPDPRP | -0.136
8 | RRIRLRPPRLPRPRPRPCQLPRP | -0.8
9 | RRIRLRPPRLPRPRPRPCRDPRP | -0.211
10 | RRIRLRPPRLPRPRPRPCREPRP | 0.251
11 | RRIRLRPPRLPRPRPRPCRVPRP | -0.141
12 | RRIRLRPPRLPRPRPRPCRYPRP | -0.0582
13 | RRIRLRPPRLPRPRPRPCYTPRP | -0.525
14 | RRIRLRPPRLPRPRPRPCYWPRP | -0.317
15 | RRIRLRPPRLPRPRPRPDAGPRP | 0.0316
16 | RRIRLRPPRLPRPRPRPDAQPRP | 0.34
17 | RRIRLRPPRLPRPRPRPDARPRP | 0.0258
18 | RRIRLRPPRLPRPRPRPDASPRP | 0.101
19 | RRIRLRPPRLPRPRPRPDCAPRP | 0.239
20 | RRIRLRPPRLPRPRPRPDCKPRP | 0.0852
21 | RRIRLRPPRLPRPRPRPDCMPRP | -0.0708
22 | RRIRLRPPRLPRPRPRPDCTPRP | 0.0972
23 | RRIRLRPPRLPRPRPRPDDEPRP | -0.0861
24 | RRIRLRPPRLPRPRPRPDDSPRP | 0.0276
25 | RRIRLRPPRLPRPRPRPDDWPRP | 0.044

Row | Sequence | shrunken log2 fold change
26 | RRIRLRPPRLPRPRPRPDGRPRP | -0.00938
27 | RRIRLRPPRLPRPRPRPDHYPRP | 0.101
28 | RRIRLRPPRLPRPRPRPDKNPRP | -0.0881
29 | RRIRLRPPRLPRPRPRPDKRPRP | -0.175
30 | RRIRLRPPRLPRPRPRPDLGPRP | -0.0612
31 | RRIRLRPPRLPRPRPRPDNIPRP | -0.535
32 | RRIRLRPPRLPRPRPRPDPEPRP | 0.0928
33 | RRIRLRPPRLPRPRPRPDPSPRP | 0.0199
34 | RRIRLRPPRLPRPRPRPDQFPRP | 0.0392
35 | RRIRLRPPRLPRPRPRPDQYPRP | -0.014
36 | RRIRLRPPRLPRPRPRPDVMPRP | -0.269
37 | RRIRLRPPRLPRPRPRPDWCPRP | 0.0707
38 | RRIRLRPPRLPRPRPRPDWRPRP | 0.0715
39 | RRIRLRPPRLPRPRPRPEAQPRP | 0.375
40 | RRIRLRPPRLPRPRPRPECVPRP | 0.148
41 | RRIRLRPPRLPRPRPRPEEMPRP | 0.034
42 | RRIRLRPPRLPRPRPRPEEPPRP | 0.0426
43 | RRIRLRPPRLPRPRPRPEFHPRP | -0.113
44 | RRIRLRPPRLPRPRPRPEFLPRP | -0.108
45 | RRIRLRPPRLPRPRPRPEGWPRP | 0.862
46 | RRIRLRPPRLPRPRPRPEHTPRP | 0.0956
47 | RRIRLRPPRLPRPRPRPEIRPRP | -0.0685
48 | RRIRLRPPRLPRPRPRPEKMPRP | -0.35
49 | RRIRLRPPRLPRPRPRPEKNPRP | 0.0916
50 | RRIRLRPPRLPRPRPRPEKPPRP | 0.148

Row | Sequence | shrunken log2 fold change
51 | RRIRLRPPRLPRPRPRPEKTPRP | -0.00142
52 | RRIRLRPPRLPRPRPRPEPGPRP | 0.35
53 | RRIRLRPPRLPRPRPRPEQEPRP | -0.104
54 | RRIRLRPPRLPRPRPRPEQQPRP | 0.0529
55 | RRIRLRPPRLPRPRPRPERGPRP | 0.538
56 | RRIRLRPPRLPRPRPRPERWPRP | 0.637
57 | RRIRLRPPRLPRPRPRPERYPRP | -0.0429
58 | RRIRLRPPRLPRPRPRPETEPRP | 0.0833
59 | RRIRLRPPRLPRPRPRPEVEPRP | 0.0199
60 | RRIRLRPPRLPRPRPRPEWYPRP | 0.0934
61 | RRIRLRPPRLPRPRPRPEYAPRP | -0.000852
62 | RRIRLRPPRLPRPRPRPEYPPRP | -0.336
63 | RRIRLRPPRLPRPRPRPEYVPRP | 0.102
64 | RRIRLRPPRLPRPRPRPFAKPRP | -0.118
65 | RRIRLRPPRLPRPRPRPFAMPRP | -0.407
66 | RRIRLRPPRLPRPRPRPFEVPRP | 0.0377
67 | RRIRLRPPRLPRPRPRPFFKPRP | -0.169
68 | RRIRLRPPRLPRPRPRPFGEPRP | 0.084
69 | RRIRLRPPRLPRPRPRPFIWPRP | 0.112
70 | RRIRLRPPRLPRPRPRPFLLPRP | -0.47
71 | RRIRLRPPRLPRPRPRPFNQPRP | -0.122
72 | RRIRLRPPRLPRPRPRPFNTPRP | 0.724
73 | RRIRLRPPRLPRPRPRPFPCPRP | 0.0233
74 | RRIRLRPPRLPRPRPRPFPEPRP | -0.0878
75 | RRIRLRPPRLPRPRPRPFQCPRP | 0.000653
